Test results as given in patent US20170022291A1 (Adimab, published 2017).
Where two headings read alike, the source gives them in different places.

Legend:
[1] = molecular target: T1, Human Epidermal Growth Factor Receptor 2 (HER2), soluble antigen (human, UniProt P04626 23-652, limits assumed); experiment: affinity of the HER2 binding region in the IgG-Fab; method not named on the sheet or in the legend
T1 construct: also called b-HER2; b-HER2-HIS

[2] = molecular target: T2, EGFR (UniProt P00533 25-645, limits assumed); experiment: affinity of the EGFR binding region in the IgG-Fab; method not named on the sheet or in the legend
T2 construct: also called Antigen 1

[3] = molecular target: T2, EGFR; experiment: as above; remark: listed apart in the source
[4] = molecular target: T3, Human Epidermal Growth Factor Receptor 3 (HER3), soluble antigen (human, UniProt P21860 20-643, limits assumed); experiment: affinity of the HER3 binding region in the IgG-Fab; method not named on the sheet or in the legend
T3 construct: also called b-HER3; b-HER3-HIS

Kd [1] | Kd [2] | Kd [3] | Kd [4] | Binder
8.2 nM | 0.17 nM |  |  | N-terminal-EGFR::C-terminal HER2 multispecific antibody analog (Analog 1) (bispecific antibody, IgG-Fab 2+2 format: EGFR VH-CH1-hinge-CH2-CH3-(G4S)3-HER2 VH-CH1, two copies, with four copies of the common light chain; also called N-term-EGF::C-term-HER2; EGFR-HER2 IgG-Fab) heavy: not shown light: DIQLTQSPSTLSASVGDRVTITCRASQAISSWLAWYQQKPGKAPKLLIYDASSLESGVPSRFSGSGSGTEFTLTISSLQPDDFATYYCHQYQSYSWTFGGGTKVEIKRTVAAPSVFIFPPSDEQLKSGTASVVCLLNNFYPREAKVQWKVDNALQSGNSQESVTEQDSKDSTYSLSSTLTLSKADYEKHKVYACEVTHQGLSSPVTKSFNRGEC
0.1 nM | 0.47 nM |  |  | N-terminal HER2::C-terminal EGFR multispecific antibody analog (Analog 2) (bispecific antibody, human IgG1, kappa, IgG-Fab 2+2 format: HER2 VH-CH1-hinge-CH2-CH3-(G4S)3-EGFR VH-CH1, two copies, with four copies of the common light chain; also called N-term-HER2::C-term-EGFR; HER2-EGFR IgG-Fab) heavy: not shown light: DIQLTQSPSTLSASVGDRVTITCRASQAISSWLAWYQQKPGKAPKLLIYDASSLESGVPSRFSGSGSGTEFTLTISSLQPDDFATYYCHQYQSYSWTFGGGTKVEIKRTVAAPSVFIFPPSDEQLKSGTASVVCLLNNFYPREAKVQWKVDNALQSGNSQESVTEQDSKDSTYSLSSTLTLSKADYEKHKVYACEVTHQGLSSPVTKSFNRGEC
 |  | 0.29 nM | 0.049 nM | N-terminal EGFR::C-terminal HER3 multispecific antibody analog (Analog 3) (bispecific antibody, human IgG1, kappa, IgG-Fab 2+2 format: EGFR VH-CH1-hinge-CH2-CH3-(G4S)3-HER3 VH-CH1, two copies, with four copies of the common light chain; also called N-term-EGFR::C-term-HER3; EGFR-HER3 IgG-Fab) heavy: not shown light: DIQLTQSPSSVSASVGDRVTITCRASQDISSWLAWYQQKPGKAPKLLIYAASSLQSGVPSRFSGSGSGTDFTLTISSLQPEDFATYYCQQEHDFPWTFGGGTKVEIKRTVAAPSVFIFPPSDEQLKSGTASVVCLLNNFYPREAKVQWKVDNALQSGNSQESVTEQDSKDSTYSLSSTLTLSKADYEKHKVYACEVTHQGLSSPVTKSFNRGEC
 |  | 0.87 nM | 0.049 nM | N-terminal HER3::C-terminal EGFR multispecific antibody analog (Analog 4) (bispecific antibody, human IgG1, kappa, IgG-Fab 2+2 format: HER3 VH-CH1-hinge-CH2-CH3-(G4S)3-EGFR VH-CH1, two copies, with four copies of the common light chain; also called N-term-HER3::C-term-EGFR; HER3-EGFR IgG-Fab) heavy: not shown light: DIQLTQSPSSVSASVGDRVTITCRASQDISSWLAWYQQKPGKAPKLLIYAASSLQSGVPSRFSGSGSGTDFTLTISSLQPEDFATYYCQQEHDFPWTFGGGTKVEIKRTVAAPSVFIFPPSDEQLKSGTASVVCLLNNFYPREAKVQWKVDNALQSGNSQESVTEQDSKDSTYSLSSTLTLSKADYEKHKVYACEVTHQGLSSPVTKSFNRGEC
